According to patent publication US20180155451A1 (published 2018):

T1: FcγRIIa H (human, UniProt P12318 34-217)
T1 construct: extracellular domain; Soluble extracellular domain with C-terminal His tag, expressed in FreeStyle293 cells; also called FcgRIIa H; 2aH; not shown: C-terminal His tag
T1 sequence (looked up): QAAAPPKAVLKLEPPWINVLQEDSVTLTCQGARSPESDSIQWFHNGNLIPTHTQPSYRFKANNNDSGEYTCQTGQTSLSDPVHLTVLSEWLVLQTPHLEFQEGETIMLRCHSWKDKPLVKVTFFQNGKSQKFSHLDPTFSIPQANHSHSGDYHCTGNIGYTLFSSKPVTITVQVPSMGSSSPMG

T2: FcγRIIb (human, UniProt P31994 43-217)
T2 construct: extracellular domain; Soluble extracellular domain with C-terminal His tag, expressed in FreeStyle293 cells; also called FcgRIIb; 2b; not shown: C-terminal His tag
T2 sequence (looked up): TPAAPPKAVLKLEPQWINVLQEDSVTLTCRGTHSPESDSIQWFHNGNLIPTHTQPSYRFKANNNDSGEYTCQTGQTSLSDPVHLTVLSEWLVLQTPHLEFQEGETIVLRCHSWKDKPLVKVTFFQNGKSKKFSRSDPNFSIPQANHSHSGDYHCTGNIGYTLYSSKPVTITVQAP


What was measured:
[1] = biological target: T1, FcγRIIa H; assay: SPR (Biacore), antibody captured, FcγR as analyte; relative to HeCon Ab
Protocol: (§1) The heterodimerized antibodies He Abs in which one of the H chains was introduced with an alteration were assayed for their binding activities to each activating FcγR and inhibitory FcγR according to the method described in Example 4. […] The activating FcγRs in FIGS. 26, 27, 28, and 29 are FcγRIa, FcγRIIa (R), FcγRIIa (H), and FcγRIIIa, respectively.
(§2) Analysis of interaction between objective antibody and the FcγR was carried out using Biacore T100 (GE Healthcare). HBS-EP+ (GE Healthcare) was used as the running buffer, and the measurement temperature was set to 25° C. Chips produced by immobilizing the antigen peptide by the amine coupling method to a Series S Sencor Chip CM5 (GE Healthcare), or alternatively, chips produced by allowing preliminarily biotinylated antigen peptides to interact with and immobilize onto a Series S Sensor Chip SA (certified) (GE Healthcare) were used. Antibodies of interest were captured onto an antigen peptide-immobilized chip, and allowed to interact to each FcγR diluted with running buffer. To regenerate and repeatedly use the chip, the antibodies captured on the chip were washed off by reacting 10 mM glycine-HCl, pH 1.5.

[2] = biological target: T2, FcγRIIb; assay: as above
Protocol: as §1, §2

| Binder | He/Con_2aH [1] | He/Con_2b [2] |
| --- | --- | --- |
| GpH7-A5/GpH7-B3 variant G237_02A/GpL16-k0 (antibody, human IgG1, kappa, Heterodimerized anti-glypican-3 IgG1; alteration in the GpH7-B3 chain only; also called He Ab) heavy 1: not shown heavy 2: not shown light: DIVMTQSPLSLPVTPGEPASISCQASESLVHSNRNTYLHWYLQKPGQSPQLLIYKVSNRFSGVPDRFSGSGSGTDFTLKISRVEAEDVGVYYCSQNTHVPPTFGQGTKVEIERTVAAPSVFIFPPSDEQLKSGTASVVCLLNNFYPREAKVQWKVDNALQSGNSQESVTEQDSKDSTYSLSSTLTLSKADYEKHKVYACEVTHQGLSSPVTKSFNRGEC | 34 % of GpH7-A5/GpH7-B3/GpL16-k0 (=100) | 124 % of GpH7-A5/GpH7-B3/GpL16-k0 (=100) |
| GpH7-A5/GpH7-B3 variant G237_04F/GpL16-k0 (antibody, human IgG1, kappa, Heterodimerized anti-glypican-3 IgG1; alteration in the GpH7-B3 chain only; also called He Ab) heavy 1: not shown heavy 2: not shown light: DIVMTQSPLSLPVTPGEPASISCQASESLVHSNRNTYLHWYLQKPGQSPQLLIYKVSNRFSGVPDRFSGSGSGTDFTLKISRVEAEDVGVYYCSQNTHVPPTFGQGTKVEIERTVAAPSVFIFPPSDEQLKSGTASVVCLLNNFYPREAKVQWKVDNALQSGNSQESVTEQDSKDSTYSLSSTLTLSKADYEKHKVYACEVTHQGLSSPVTKSFNRGEC | 41.4 % of GpH7-A5/GpH7-B3/GpL16-k0 (=100) | 149 % of GpH7-A5/GpH7-B3/GpL16-k0 (=100) |
| GpH7-A5/GpH7-B3 variant G237_13S/GpL16-k0 (antibody, human IgG1, kappa, Heterodimerized anti-glypican-3 IgG1; alteration in the GpH7-B3 chain only; also called He Ab) heavy 1: not shown heavy 2: not shown light: DIVMTQSPLSLPVTPGEPASISCQASESLVHSNRNTYLHWYLQKPGQSPQLLIYKVSNRFSGVPDRFSGSGSGTDFTLKISRVEAEDVGVYYCSQNTHVPPTFGQGTKVEIERTVAAPSVFIFPPSDEQLKSGTASVVCLLNNFYPREAKVQWKVDNALQSGNSQESVTEQDSKDSTYSLSSTLTLSKADYEKHKVYACEVTHQGLSSPVTKSFNRGEC | 29.8 % of GpH7-A5/GpH7-B3/GpL16-k0 (=100) | 111 % of GpH7-A5/GpH7-B3/GpL16-k0 (=100) |
| GpH7-A5/GpH7-B3 variant L234_10E/GpL16-k0 (antibody, human IgG1, kappa, Heterodimerized anti-glypican-3 IgG1; alteration in the GpH7-B3 chain only; also called He Ab) heavy 1: not shown heavy 2: not shown light: DIVMTQSPLSLPVTPGEPASISCQASESLVHSNRNTYLHWYLQKPGQSPQLLIYKVSNRFSGVPDRFSGSGSGTDFTLKISRVEAEDVGVYYCSQNTHVPPTFGQGTKVEIERTVAAPSVFIFPPSDEQLKSGTASVVCLLNNFYPREAKVQWKVDNALQSGNSQESVTEQDSKDSTYSLSSTLTLSKADYEKHKVYACEVTHQGLSSPVTKSFNRGEC | 88.3 % of GpH7-A5/GpH7-B3/GpL16-k0 (=100) | 118 % of GpH7-A5/GpH7-B3/GpL16-k0 (=100) |

Second part, the binder after the results:

| He/Con_2aH [1] | He/Con_2b [2] | Binder |
| --- | --- | --- |
| 33.3 % of GpH7-A5/GpH7-B3/GpL16-k0 (=100) | 102 % of GpH7-A5/GpH7-B3/GpL16-k0 (=100) | GpH7-A5/GpH7-B3 variant S239_05P/GpL16-k0 (antibody, human IgG1, kappa, Heterodimerized anti-glypican-3 IgG1; alteration in the GpH7-B3 chain only; also called He Ab) heavy 1: not shown heavy 2: not shown light: DIVMTQSPLSLPVTPGEPASISCQASESLVHSNRNTYLHWYLQKPGQSPQLLIYKVSNRFSGVPDRFSGSGSGTDFTLKISRVEAEDVGVYYCSQNTHVPPTFGQGTKVEIERTVAAPSVFIFPPSDEQLKSGTASVVCLLNNFYPREAKVQWKVDNALQSGNSQESVTEQDSKDSTYSLSSTLTLSKADYEKHKVYACEVTHQGLSSPVTKSFNRGEC |
| 75.8 % of GpH7-A5/GpH7-B3/GpL16-k0 (=100) | 106 % of GpH7-A5/GpH7-B3/GpL16-k0 (=100) | GpH7-A5/GpH7-B3 variant L235_09D/GpL16-k0 (antibody, human IgG1, kappa, Heterodimerized anti-glypican-3 IgG1; alteration in the GpH7-B3 chain only; also called He Ab) heavy 1: not shown heavy 2: not shown light: DIVMTQSPLSLPVTPGEPASISCQASESLVHSNRNTYLHWYLQKPGQSPQLLIYKVSNRFSGVPDRFSGSGSGTDFTLKISRVEAEDVGVYYCSQNTHVPPTFGQGTKVEIERTVAAPSVFIFPPSDEQLKSGTASVVCLLNNFYPREAKVQWKVDNALQSGNSQESVTEQDSKDSTYSLSSTLTLSKADYEKHKVYACEVTHQGLSSPVTKSFNRGEC |
| 118 % of GpH7-A5/GpH7-B3/GpL16-k0 (=100) | 147 % of GpH7-A5/GpH7-B3/GpL16-k0 (=100) | GpH7-A5/GpH7-B3 variant L235_20W/GpL16-k0 (antibody, human IgG1, kappa, Heterodimerized anti-glypican-3 IgG1; alteration in the GpH7-B3 chain only; also called He Ab) heavy 1: not shown heavy 2: not shown light: DIVMTQSPLSLPVTPGEPASISCQASESLVHSNRNTYLHWYLQKPGQSPQLLIYKVSNRFSGVPDRFSGSGSGTDFTLKISRVEAEDVGVYYCSQNTHVPPTFGQGTKVEIERTVAAPSVFIFPPSDEQLKSGTASVVCLLNNFYPREAKVQWKVDNALQSGNSQESVTEQDSKDSTYSLSSTLTLSKADYEKHKVYACEVTHQGLSSPVTKSFNRGEC |
| 29 % of GpH7-A5/GpH7-B3/GpL16-k0 (=100) | 109 % of GpH7-A5/GpH7-B3/GpL16-k0 (=100) | GpH7-A5/GpH7-B3 variant S267_08L/GpL16-k0 (antibody, human IgG1, kappa, Heterodimerized anti-glypican-3 IgG1; alteration in the GpH7-B3 chain only; also called He Ab) heavy 1: not shown heavy 2: not shown light: DIVMTQSPLSLPVTPGEPASISCQASESLVHSNRNTYLHWYLQKPGQSPQLLIYKVSNRFSGVPDRFSGSGSGTDFTLKISRVEAEDVGVYYCSQNTHVPPTFGQGTKVEIERTVAAPSVFIFPPSDEQLKSGTASVVCLLNNFYPREAKVQWKVDNALQSGNSQESVTEQDSKDSTYSLSSTLTLSKADYEKHKVYACEVTHQGLSSPVTKSFNRGEC |
| 83.9 % of GpH7-A5/GpH7-B3/GpL16-k0 (=100) | 251 % of GpH7-A5/GpH7-B3/GpL16-k0 (=100) | GpH7-A5/GpH7-B3 variant V266_06M/GpL16-k0 (antibody, human IgG1, kappa, Heterodimerized anti-glypican-3 IgG1; alteration in the GpH7-B3 chain only; also called He Ab) heavy 1: not shown heavy 2: not shown light: DIVMTQSPLSLPVTPGEPASISCQASESLVHSNRNTYLHWYLQKPGQSPQLLIYKVSNRFSGVPDRFSGSGSGTDFTLKISRVEAEDVGVYYCSQNTHVPPTFGQGTKVEIERTVAAPSVFIFPPSDEQLKSGTASVVCLLNNFYPREAKVQWKVDNALQSGNSQESVTEQDSKDSTYSLSSTLTLSKADYEKHKVYACEVTHQGLSSPVTKSFNRGEC |
